Source: paper doi:10.1101/2024.03.27.586992, “Molecular basis for condensin enrichment at pericentromeres” (bioRxiv, 2024)

T1: Ycg1(6-932, Δ499-555) (S. cerevisiae, UniProt Q06680 6-932, Δ499-555)
T1 construct: Stood in the assay as a chain of m6; made a molecule for the cross-links
T1 sequence (looked up): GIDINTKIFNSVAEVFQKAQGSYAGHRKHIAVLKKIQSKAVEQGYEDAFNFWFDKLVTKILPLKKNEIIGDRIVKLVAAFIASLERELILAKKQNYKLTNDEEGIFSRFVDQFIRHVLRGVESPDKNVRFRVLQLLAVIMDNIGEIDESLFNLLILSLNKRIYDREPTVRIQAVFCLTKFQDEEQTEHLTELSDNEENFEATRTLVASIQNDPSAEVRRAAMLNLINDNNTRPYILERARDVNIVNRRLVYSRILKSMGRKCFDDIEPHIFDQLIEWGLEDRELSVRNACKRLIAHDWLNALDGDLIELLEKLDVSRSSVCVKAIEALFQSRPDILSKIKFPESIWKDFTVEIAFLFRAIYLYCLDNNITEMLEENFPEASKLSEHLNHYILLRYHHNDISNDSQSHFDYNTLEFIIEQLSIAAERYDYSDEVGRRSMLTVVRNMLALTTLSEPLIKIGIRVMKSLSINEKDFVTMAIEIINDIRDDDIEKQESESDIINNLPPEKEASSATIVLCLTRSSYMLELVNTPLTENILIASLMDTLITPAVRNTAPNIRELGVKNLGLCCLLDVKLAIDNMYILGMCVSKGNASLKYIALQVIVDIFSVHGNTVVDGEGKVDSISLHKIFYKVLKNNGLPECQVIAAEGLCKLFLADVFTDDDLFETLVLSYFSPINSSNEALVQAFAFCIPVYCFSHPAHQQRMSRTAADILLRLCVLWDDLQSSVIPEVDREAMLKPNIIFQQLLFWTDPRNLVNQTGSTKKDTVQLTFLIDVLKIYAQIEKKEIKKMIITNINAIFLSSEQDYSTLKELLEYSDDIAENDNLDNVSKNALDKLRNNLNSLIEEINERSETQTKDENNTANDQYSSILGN

T2: Ycg1(6-932, Δ499-555)-Brn1(384-529) (S. cerevisiae, UniProt Q06680 6-932; P38170 384-529, Δ499-555)
T2 construct: Brn1, S. cerevisiae, residues 384-529; also called Ycg1-Brn1; Ycg1-short Brn1
T2 sequence (looked up) 1: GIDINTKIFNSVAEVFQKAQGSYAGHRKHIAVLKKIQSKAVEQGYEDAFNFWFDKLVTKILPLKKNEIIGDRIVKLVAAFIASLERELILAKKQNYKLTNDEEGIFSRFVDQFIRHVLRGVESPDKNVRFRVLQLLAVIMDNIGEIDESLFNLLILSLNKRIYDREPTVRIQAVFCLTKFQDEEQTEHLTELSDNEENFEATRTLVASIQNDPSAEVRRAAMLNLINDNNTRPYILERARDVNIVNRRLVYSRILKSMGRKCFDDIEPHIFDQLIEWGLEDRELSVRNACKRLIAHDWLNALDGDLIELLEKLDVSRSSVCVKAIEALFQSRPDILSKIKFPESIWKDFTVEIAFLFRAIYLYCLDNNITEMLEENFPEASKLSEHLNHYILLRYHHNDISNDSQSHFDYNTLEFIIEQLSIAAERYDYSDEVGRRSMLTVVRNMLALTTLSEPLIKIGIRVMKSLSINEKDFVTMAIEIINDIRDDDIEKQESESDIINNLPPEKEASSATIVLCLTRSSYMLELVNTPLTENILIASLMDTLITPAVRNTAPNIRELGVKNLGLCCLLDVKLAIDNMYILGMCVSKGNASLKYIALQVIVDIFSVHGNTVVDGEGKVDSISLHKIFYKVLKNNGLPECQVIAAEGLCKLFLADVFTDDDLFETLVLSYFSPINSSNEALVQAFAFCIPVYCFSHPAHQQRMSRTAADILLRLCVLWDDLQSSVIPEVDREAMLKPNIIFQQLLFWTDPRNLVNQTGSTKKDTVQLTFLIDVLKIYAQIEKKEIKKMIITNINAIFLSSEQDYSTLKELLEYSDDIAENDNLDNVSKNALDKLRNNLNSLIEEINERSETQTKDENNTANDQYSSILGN
T2 sequence (looked up) 2: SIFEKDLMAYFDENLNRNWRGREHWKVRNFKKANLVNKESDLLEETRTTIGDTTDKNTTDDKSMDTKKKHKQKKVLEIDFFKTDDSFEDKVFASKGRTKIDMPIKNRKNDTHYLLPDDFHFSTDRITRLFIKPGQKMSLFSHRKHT

T3: Ycg1 (subunit within the purified pentameric condensin holocomplex) (S. cerevisiae, UniProt Q06680 1-1035)
T3 construct: Ycg1, HAWK subunit of S. cerevisiae condensin; Stood in the assay as a subunit of m2; made a molecule for the cross-links to Sgo1; source: purified from yeast as part of the pentameric condensin complex
T3 sequence (looked up): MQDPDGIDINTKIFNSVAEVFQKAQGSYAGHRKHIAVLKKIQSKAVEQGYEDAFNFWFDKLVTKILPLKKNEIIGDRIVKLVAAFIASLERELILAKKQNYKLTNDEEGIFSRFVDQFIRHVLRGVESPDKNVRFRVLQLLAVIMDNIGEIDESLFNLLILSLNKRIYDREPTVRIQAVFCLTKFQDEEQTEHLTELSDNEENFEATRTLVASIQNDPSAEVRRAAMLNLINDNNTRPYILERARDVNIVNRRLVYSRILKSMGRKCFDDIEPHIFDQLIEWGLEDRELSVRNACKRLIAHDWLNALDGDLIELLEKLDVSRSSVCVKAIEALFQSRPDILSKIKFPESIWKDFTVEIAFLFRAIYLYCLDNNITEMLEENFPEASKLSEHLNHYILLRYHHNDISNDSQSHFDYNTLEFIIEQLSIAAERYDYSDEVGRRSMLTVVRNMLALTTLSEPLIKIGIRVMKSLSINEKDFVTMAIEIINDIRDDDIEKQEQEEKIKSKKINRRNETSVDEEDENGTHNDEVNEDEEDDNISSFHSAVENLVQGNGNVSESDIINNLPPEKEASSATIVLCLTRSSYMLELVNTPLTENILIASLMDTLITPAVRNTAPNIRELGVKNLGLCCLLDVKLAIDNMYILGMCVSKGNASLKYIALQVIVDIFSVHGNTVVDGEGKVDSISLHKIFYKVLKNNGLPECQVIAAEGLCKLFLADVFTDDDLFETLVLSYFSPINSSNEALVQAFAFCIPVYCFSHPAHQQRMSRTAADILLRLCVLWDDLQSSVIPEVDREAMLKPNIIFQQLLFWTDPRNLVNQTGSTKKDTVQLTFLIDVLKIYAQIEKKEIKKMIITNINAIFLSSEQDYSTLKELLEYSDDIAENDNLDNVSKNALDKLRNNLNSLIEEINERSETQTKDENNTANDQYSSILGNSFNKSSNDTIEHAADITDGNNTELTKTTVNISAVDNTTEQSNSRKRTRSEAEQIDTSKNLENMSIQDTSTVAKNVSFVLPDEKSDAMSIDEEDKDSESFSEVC


Tests used:
Conditions in all cases: both partners purified
Ycg1(6-932, Δ499-555) = target: T1, Ycg1(6-932, Δ499-555); assay: cross-linking; BS3 cross-linking mass spectrometry; Sgo1: Ycg1-Brn1 molar ratio 1.5:1; 25 mM HEPES pH7.5, 500 mM NaCl, 10% glycerol; 2 hours on ice; crosslinks with score>10.5
[1] = target: T2, Ycg1(6-932, Δ499-555)-Brn1(384-529); assay: co-IP; two purified recombinant proteins incubated 2.5 hours with anti-V5-coupled dynabeads (V5-Sgo1 held); 25 mM HEPES pH 7.5, 500 mM NaCl, 10 % glycerol, 1 mM DTT, 0.1 % NP-40; silver stain or immunoblot
[2] = target: T2, Ycg1(6-932, Δ499-555)-Brn1(384-529); assay: co-IP; two purified recombinant proteins incubated 2.5 hours with anti-GFP-coupled dynabeads (GFP-Sgo1 variant held); 25 mM HEPES pH 7.5, 500 mM NaCl, 10 % glycerol, 1 mM DTT, 0.1 % NP-40; silver stain
[3] = target: T3, Ycg1 (subunit within the purified …); assay: cross-linking; BS3 cross-linking mass spectrometry of full length Sgo1 with condensin holo-complex, 1:1 (w:w); 25 mM HEPES pH7.5, 150 mM NaCl, 5% glycerol, 1mM DTT; 2 hours on ice; crosslinks with score>10.5

| binding result (Ycg1(6-932, Δ499-555)) | binding result [2] | Binder | other results |
| --- | --- | --- | --- |
| binds |  | V5-Sgo1 (350-590) (domain or fragment, S. cerevisiae, UniProt Q08490 350-590, looked up, Sgo1, S. cerevisiae, residues 350-590 (C-terminal region); also called C-terminus of Sgo1 (350-590); C-Sgo1; source: protease-deficient yeast strain (AM8184), galactose induced, purified as V5-Sgo1 (FL) (Ni2+ IMAC, gel filtration)) EVMPVSNMSSNSEISFTRTRRTRGKAVDYTLPSLRAKMRRPSEKLVDATTVIDIHDLQVSKRNRETSHKRKSLSQDSIPDEPQLREVVVSKDYGTPKGKKTEDEIHEDTAHLMTTSNNNSNNKNEKKLTSNNSPKKSSPLLDITNKSENKKKSTRTKKLFKNAIVNNLSDENSTTRPSKSSKGTSNNNNNYNNFDNNNSNINNVNNKSVSFRLNEDDLAVFDLFGNGKAVKHQPKTYRTKK | binding result [1]: binds |
|  | binds | GFP-Sgo1(350-590) (domain or fragment, S. cerevisiae, UniProt Q08490 350-590, looked up, Sgo1, S. cerevisiae, residues 350-590; codon optimized gene; Written GFP-Sgo1; also called GFP-tagged C-Sgo1; wild type) EVMPVSNMSSNSEISFTRTRRTRGKAVDYTLPSLRAKMRRPSEKLVDATTVIDIHDLQVSKRNRETSHKRKSLSQDSIPDEPQLREVVVSKDYGTPKGKKTEDEIHEDTAHLMTTSNNNSNNKNEKKLTSNNSPKKSSPLLDITNKSENKKKSTRTKKLFKNAIVNNLSDENSTTRPSKSSKGTSNNNNNYNNFDNNNSNINNVNNKSVSFRLNEDDLAVFDLFGNGKAVKHQPKTYRTKK |  |
|  |  | V5-Sgo1 (FL) (natural protein, S. cerevisiae, UniProt Q08490 1-590, looked up, Sgo1 (shugoshin), S. cerevisiae, full length; Written V5-Sgo1; also called full length Sgo1; shugoshin; source: protease-deficient yeast strain (AM8184), purified (Ni2+ HiTrap IMAC, Superose 6 gel filtration)) MPKRKIAPNKESSRRTVSHDDLTPQIQEFQNLMDLESQKVENIRQSYSRQNSLLAKDNSILKIKVNSLEKKISQLVQENVTLRSKTSISEAIYRERLSNQLQVIENGIIQRFDEIFYMFENVRKNENLPSSSLRTMLKRTSSRSRSCSLSSPTYSKSYTRLSNHENNLSHESSFNKDDGPDLEPKAKKRKSSRRQSMFVSTSLEPEDETGENEPMMENSSVEVPAESHESAQVEETIDALNPEEENSDSVSNFTNSIIEYSIPEENPTEPEHSSSKLEIFNDSTNMLSTVPSNPLPLPLPGPSATLPTTTSDASTVYPSSSSSTNSHPKTKIKHSMKPPRIELKKKVIDEVMPVSNMSSNSEISFTRTRRTRGKAVDYTLPSLRAKMRRPSEKLVDATTVIDIHDLQVSKRNRETSHKRKSLSQDSIPDEPQLREVVVSKDYGTPKGKKTEDEIHEDTAHLMTTSNNNSNNKNEKKLTSNNSPKKSSPLLDITNKSENKKKSTRTKKLFKNAIVNNLSDENSTTRPSKSSKGTSNNNNNYNNFDNNNSNINNVNNKSVSFRLNEDDLAVFDLFGNGKAVKHQPKTYRTKK | binding result [3]: binds |
|  | binds | GFP-Sgo1 (472-530) (domain or fragment, S. cerevisiae, UniProt Q08490 472-530, looked up, Sgo1, S. cerevisiae, residues 472-530 (holds CR1); also called wild type; source: E. coli BL21(DE3), purified (Ni-NTA resin, dialysis)) KNEKKLTSNNSPKKSSPLLDITNKSENKKKSTRTKKLFKNAIVNNLSDENSTTRPSKSS |  |
| binds |  | Brn1(384-529) (domain or fragment, S. cerevisiae, UniProt P38170 384-529, looked up, Brn1, S. cerevisiae, residues 384-529; Stood in the assay as a chain of m6; made a molecule for the cross-links; also called short Brn1) SIFEKDLMAYFDENLNRNWRGREHWKVRNFKKANLVNKESDLLEETRTTIGDTTDKNTTDDKSMDTKKKHKQKKVLEIDFFKTDDSFEDKVFASKGRTKIDMPIKNRKNDTHYLLPDDFHFSTDRITRLFIKPGQKMSLFSHRKHT |  |
